# Legend:
# [1] = target: integrins on CHO and CHO-C2 cells (Chinese hamster (endogenous in CHO))
# [2] = target: C2 isoform of CD46 on CHO-C2 cells (human)
# [3] = target: C2 isoform of CD46 on CHO-C2 cells (human); remark: listed apart in the source
# [4] = target: adenovirus serotype 35 vector virions (human adenovirus serotype 35)
# [5] = target: adenovirus serotype 43 virions (human adenovirus serotype 43)
# recombinant soluble human CD46 protein comprising the extracellular component of the receptor, sequence (P15529 35-343): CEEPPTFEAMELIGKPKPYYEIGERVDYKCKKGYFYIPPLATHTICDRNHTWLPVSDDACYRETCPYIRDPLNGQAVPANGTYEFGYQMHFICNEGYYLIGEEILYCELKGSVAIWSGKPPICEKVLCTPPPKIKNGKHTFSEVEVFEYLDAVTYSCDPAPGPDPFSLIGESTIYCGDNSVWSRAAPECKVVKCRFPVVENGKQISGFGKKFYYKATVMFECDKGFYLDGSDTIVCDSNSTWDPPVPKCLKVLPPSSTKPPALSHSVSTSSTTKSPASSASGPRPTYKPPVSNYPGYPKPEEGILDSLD
substance,measurement,setting,value
adenovirus serotype 43 virions (complex),"inhibition of Ad43TL transduction of CHO and CHO-C2 cells pre-treated on ice with EDTA (10 mM), virus attached on ice",[1],> 80%
same,"inhibition of Ad43TL transduction of CHO and CHO-C2 cells pre-treated on ice with the RGD-containing peptide GRGDSP (2 mg/ml), virus attached on ice",[1],> 80%
recombinant Ad35 fiber knob domain (domain or fragment),inhibition of Ad35TL transduction of CHO-C2 cells pre-incubated with the Ad35 knob (Fluc activity); the pair blocked is m4 with m6,[2],90%
same,inhibition of Ad43TL transduction of CHO-C2 cells pre-incubated with the Ad35 knob (Fluc activity); the pair blocked is m3 with m6,[2],45%
recombinant Ad43 fiber knob protein (domain or fragment),inhibition of Ad43TL infection of CHO-C2 cells pre-incubated with the Ad43 knob at 100 μg/ml (no inhibition; the text prints 100 mg/ml) and 1 mg/ml; the pair blocked is m3 with m6,[3],55%
recombinant soluble human CD46 protein comprising the extracellular component of the receptor (from UniProt P15529 35-343) (domain or fragment),inhibition of CHO-C2 transduction by Ad35TL pre-incubated with sCD46 (Fluc activity); the pair blocked is m4 with m6,[4],92%
same,inhibition of CHO-C2 transduction by Ad43TL pre-incubated with sCD46 (Fluc activity); the pair blocked is m3 with m6,[5],66%

# From publication PMC5288196
